Results from paper PMC4239081, “Differential Interaction Kinetics of a Bipolar Structure-Specific Endonuclease with DNA Flaps Revealed by Single-Molecule Imaging”.

What was measured:
[1] = biological target: PCNA (Pyrococcus abyssi) (UniProt Q9UYX8); settings: cited from earlier work
[2] = biological target: T1, NucS (PabNucS) (Pyrococcus abyssi, UniProt Q9V2E8 1-251); test: single-molecule TIRF (koff/kon); 50 mM NaCl, 23 C, no divalent cations; koff 0.52 s-1; Imaging buffer B2: 20 mM HEPES, 150 mM NaCl (or 50 mM), 0.1 mg/ml casein Blocking Reagent; pH not given; 23 C without divalent cations, or 45 C with or without; settings: protein: recombinant; tags: Alexa488 label; chain copies: 2; label: Alexa488 on F3D47; 3' flap of 20 nt at ss/dsDNA junction; three strands
T1 sequence: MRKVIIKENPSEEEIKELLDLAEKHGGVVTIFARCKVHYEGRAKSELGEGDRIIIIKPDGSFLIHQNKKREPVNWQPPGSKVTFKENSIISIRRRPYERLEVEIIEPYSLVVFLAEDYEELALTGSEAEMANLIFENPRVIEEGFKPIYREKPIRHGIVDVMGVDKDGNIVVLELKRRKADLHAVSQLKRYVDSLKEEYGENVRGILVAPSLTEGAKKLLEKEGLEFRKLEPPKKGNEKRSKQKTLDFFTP

[3] = biological target: T1, NucS (PabNucS); test: single-molecule TIRF (koff/kon); 150 mM NaCl, 23 C, no divalent cations; koff 0.076 s-1; Imaging buffer B2: 20 mM HEPES, 150 mM NaCl (or 50 mM), 0.1 mg/ml casein Blocking Reagent; pH not given; 23 C without divalent cations, or 45 C with or without; settings: protein: recombinant; tags: Alexa488 label; chain copies: 2; label: Alexa488 on F3D47; 3' flap of 20 nt at ss/dsDNA junction; three strands
[4] = biological target: T1, NucS (PabNucS); test: single-molecule TIRF (koff/kon); 50 mM NaCl, 23 C, no divalent cations; koff 0.35 s-1; Imaging buffer B2: 20 mM HEPES, 150 mM NaCl (or 50 mM), 0.1 mg/ml casein Blocking Reagent; pH not given; 23 C without divalent cations, or 45 C with or without; settings: protein: recombinant; tags: Alexa488 label; chain copies: 2; label: Alexa488 on F5D42; 5' flap of 20 nt at ss/dsDNA junction; three strands; D27 as printed has a mismatch to 49N
[5] = biological target: T1, NucS (PabNucS); test: single-molecule TIRF (koff/kon); 150 mM NaCl, 23 C, no divalent cations; koff 0.026 s-1; Imaging buffer B2: 20 mM HEPES, 150 mM NaCl (or 50 mM), 0.1 mg/ml casein Blocking Reagent; pH not given; 23 C without divalent cations, or 45 C with or without; settings: protein: recombinant; tags: Alexa488 label; chain copies: 2; label: Alexa488 on F5D42; 5' flap of 20 nt at ss/dsDNA junction; three strands; D27 as printed has a mismatch to 49N
[6] = biological target: T2, NucS (PabNucS);PCNA (PabPCNA) (Pyrococcus abyssi;Pyrococcus abyssi, UniProt Q9V2E8;Q9UYX8 1-251;1-249, |); test: single-molecule TIRF (koff/kon); 45 C, 50 nM PCNA, no Mn2+; koff 0.55 s-1; Imaging buffer B2: 20 mM HEPES, 150 mM NaCl (or 50 mM), 0.1 mg/ml casein Blocking Reagent; pH not given; 23 C without divalent cations, or 45 C with or without; settings: protein: recombinant;recombinant; tags: Alexa488 label;; chain copies: 2;3; label: Alexa488 on F3D47; 3' flap of 20 nt; three strands
T2 sequence 1: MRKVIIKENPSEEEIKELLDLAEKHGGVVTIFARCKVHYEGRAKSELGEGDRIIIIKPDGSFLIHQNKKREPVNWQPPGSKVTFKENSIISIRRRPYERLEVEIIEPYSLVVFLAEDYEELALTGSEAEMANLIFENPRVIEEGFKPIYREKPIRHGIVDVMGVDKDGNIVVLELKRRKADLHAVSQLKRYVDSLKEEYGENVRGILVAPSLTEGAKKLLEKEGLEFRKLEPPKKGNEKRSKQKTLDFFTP
T2 sequence 2: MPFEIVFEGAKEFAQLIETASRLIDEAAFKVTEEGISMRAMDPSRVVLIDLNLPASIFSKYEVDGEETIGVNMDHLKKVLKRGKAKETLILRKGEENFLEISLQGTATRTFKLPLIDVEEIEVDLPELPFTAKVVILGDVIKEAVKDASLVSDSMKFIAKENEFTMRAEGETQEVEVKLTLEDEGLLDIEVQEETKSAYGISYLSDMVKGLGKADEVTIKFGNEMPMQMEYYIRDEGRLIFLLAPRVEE

[7] = biological target: T2, NucS (PabNucS);PCNA (PabPCNA); test: single-molecule TIRF (koff/kon); 45 C, PCNA, 5 mM MnCl2 (cleaving); koff 0.85 s-1; Imaging buffer B2: 20 mM HEPES, 150 mM NaCl (or 50 mM), 0.1 mg/ml casein Blocking Reagent; pH not given; 23 C without divalent cations, or 45 C with or without; settings: protein: recombinant;recombinant; tags: Alexa488 label;; chain copies: 2;3; label: Alexa488 on F3D47; 3' flap of 20 nt; three strands
[8] = biological target: T1, NucS (PabNucS); test: single-molecule TIRF (koff/kon); 45 C, no Mn2+, no PCNA; koff 0.027 s-1; Imaging buffer B2: 20 mM HEPES, 150 mM NaCl (or 50 mM), 0.1 mg/ml casein Blocking Reagent; pH not given; 23 C without divalent cations, or 45 C with or without; settings: protein: recombinant; tags: Alexa488 label; chain copies: 2; label: Alexa488 on F3D47; 3' flap of 20 nt; three strands
[9] = biological target: T1, NucS (PabNucS); test: single-molecule TIRF (koff/kon); 45 C, no Mn2+, no PCNA; koff 0.50 s-1; Imaging buffer B2: 20 mM HEPES, 150 mM NaCl (or 50 mM), 0.1 mg/ml casein Blocking Reagent; pH not given; 23 C without divalent cations, or 45 C with or without; settings: protein: recombinant; tags: Alexa488 label; chain copies: 2; label: Alexa488 on F5D42; 5' flap of 20 nt; three strands; D27 as printed has a mismatch to 49N
[10] = biological target: T2, NucS (PabNucS);PCNA (PabPCNA); test: single-molecule TIRF (koff/kon); 45 C, PCNA, 5 mM MnCl2 (cleaving); koff 0.67 s-1; Imaging buffer B2: 20 mM HEPES, 150 mM NaCl (or 50 mM), 0.1 mg/ml casein Blocking Reagent; pH not given; 23 C without divalent cations, or 45 C with or without; settings: protein: recombinant;recombinant; tags: Alexa488 label;; chain copies: 2;3; label: Alexa488 on F5D42; 5' flap of 20 nt; three strands; D27 as printed has a mismatch to 49N
[11] = biological target: T2, NucS (PabNucS);PCNA (PabPCNA); test: single-molecule TIRF (koff/kon); 45 C, PCNA, no Mn2+; koff 0.90 s-1; Imaging buffer B2: 20 mM HEPES, 150 mM NaCl (or 50 mM), 0.1 mg/ml casein Blocking Reagent; pH not given; 23 C without divalent cations, or 45 C with or without; settings: protein: recombinant;recombinant; tags: Alexa488 label;; chain copies: 2;3; label: Alexa488 on F5D42; 5' flap of 20 nt; three strands; D27 as printed has a mismatch to 49N
[12] = biological target: T1, NucS (PabNucS); test: single-molecule TIRF; 150 mM NaCl, 23 C; kon 0.04e6 M-1s-1, no significant binding; Imaging buffer B2: 20 mM HEPES, 150 mM NaCl (or 50 mM), 0.1 mg/ml casein Blocking Reagent; pH not given; 23 C without divalent cations, or 45 C with or without; settings: protein: recombinant; tags: Alexa488 label; chain copies: 2; duplex; strands as printed not perfectly complementary

Question: Which Kd [1] does the source give for NucS (from UniProt Q9V2E8) here?
Answer: The Kd was 0.015 µM.

B1: 3'-flap (49N/F3D47/D22) (structured_DNA)
DNA 1: AGCTACCATGCCTGCACGAATTAAGCAATTCGTAATCATGGTCATAGCT
DNA 2: AGCTATGACCATGATTACGAATTGCTTGGAATCCTGACGAACTGTAG
DNA 3: AATTCGTGCAGGCATGGTAGCT
modifications: biotin (two at each end of 49N)
Question: What does the source list for B1?
Answer: Kd [2]: 0.0177 ± 0.0004 µM; Kd [3]: 0.0078 ± 0.0003 µM

B2: 5'-flap (49N/F5D42/D27) (structured_DNA)
DNA 1: AGCTACCATGCCTGCACGAATTAAGCAATTCGTAATCATGGTCATAGCT
DNA 2: GATGTCAAGCAGTCCTAAGGAATTCGTGCAGGCATGGTAGCT
DNA 3: AGCTATGATCATGATTACGAATTGCTT
modifications: biotin (two at each end of 49N)
Question: Which results are given for B2?
Answer: Kd [4]: 0.0094 ± 0.0004 µM; Kd [5]: 0.0026 ± 0.0002 µM

B3: 3'-flap, one biotin (45 C) (structured_DNA)
DNA 1: AGCTACCATGCCTGCACGAATTAAGCAATTCGTAATCATGGTCATAGCT
DNA 2: AGCTATGACCATGATTACGAATTGCTTGGAATCCTGACGAACTGTAG
DNA 3: AATTCGTGCAGGCATGGTAGCT
modifications: one biotin at the extremity
Question: Which Kd [6] does the source give for B3 here?
Answer: The Kd was 0.161 ± 0.029 µM.

Question: And the Kd [7]?
Answer: Its Kd is 0.25 ± 0.047 µM.

Question: And the Kd [8]?
Answer: Its Kd is 0.012 ± 0.003 µM.

B4: 5'-flap, one biotin (45 C) (structured_DNA)
DNA 1: AGCTACCATGCCTGCACGAATTAAGCAATTCGTAATCATGGTCATAGCT
DNA 2: GATGTCAAGCAGTCCTAAGGAATTCGTGCAGGCATGGTAGCT
DNA 3: AGCTATGATCATGATTACGAATTGCTT
modifications: one biotin at the extremity
Question: With B4 as the molecule, how does the Kd [9] read?
Answer: The Kd was 0.625 ± 0.47 µM.

Question: What about the Kd [10] of the same molecule?
Answer: Its Kd is 0.145 ± 0.015 µM.

Question: What about the Kd [11] of the same molecule?
Answer: Its Kd is 0.195 ± 0.02 µM.

B5: dsDNA (40N/40NC) (dsDNA)
DNA 1: CCTGCACGAATTAAGCAATTCGATATCATGGTCATAGCT
DNA 2: AGCTATGACCATGATTACGAATTGCTTAATTCGTGCAGG
modifications: biotin? (immobilized)
Question: Does B5 bind [12]?
Answer: Result: no binding
